Bridge positions count the residues as written; N and C are the ends. Square brackets hold non-standard residues; d marks the D form. Ends that are not written are not given here.
Assays:
anti-ALFA VHH [1] = experiment: dose-response curve fit (log(agonist) vs. response, variable slope), FIG. 2; assay format not described; unit from paragraph 98
[2] = target: T1, biotinylated NbALFA (NanoTag) (biotinylated (site not stated)); experiment: SPR, Biacore T200, biotinylated NbALFA captured on Biotin CAPture chip, peptide as analyte, multi-cycle kinetics, 1:1 model, 25 C
T1 construct: Bought from NanoTag and captured on the SPR chip through biotin; also called NbALFA-nanobody; Nanobody
T1 sequence (VHH, as listed by the source): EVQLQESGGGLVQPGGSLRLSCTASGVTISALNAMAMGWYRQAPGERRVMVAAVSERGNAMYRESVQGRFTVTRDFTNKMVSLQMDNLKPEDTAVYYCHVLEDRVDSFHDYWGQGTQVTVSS
Description: Affinity measurements were performed using a Biacore T200 (GE Healthcare, Biacore T200 control Software 3.2). For affinity measurement, the Biotin CAPture kit, series S (Cytiva Europe, Cat. no. 28920234) was utilized. A freshly docked Biotin CAPture chip was rehydrated overnight in the instrument (standby mode). The following day, the chip surface was conditioned three times with regeneration solution (6 M guanidine-HCl, 0.25 M NaOH) for 60 s at 10 μL/min on flow cell (FC) 1 and FC2. Subsequently, the Biotin CAPture reagent (Cytiva Europe, Cat. no. 29423383) was applied for 300 s at 2 μL/min on FC1 and FC2, followed by capturing of 25 nM biotinylated NbALFA (NanoTag). The immobilization of the Nanobody was done for 180 s at 10 μL/min on FC2 followed by quenching of unbound streptavidin by 0.1 mM biocytin for 60 s and 30 μL/min on both flow cells. […] injections of 10 nM, 5 nM, 2.5 nM, 1.25 nM, 0.625 nM and 0 nM (blank control) of cyclic ALFA variants were performed over both flow cells for 120 s with a flow rate of 40 μL/min, followed by dissociation for 1500 s. After each cycle, the surface was regenerated for 120 s with 10 μL/min using regeneration solution. All measurements were performed at 25° C. using HBS-EP+ buffer (Cytiva Europe, Cat. no BR100669). The control responses from FC1 were subtracted by the sample measurement in FC2 (FC2−FC1) followed by subtraction of the 0 nM blank injection. Resulting binding curves of this multi cycle kinetic experiment were fitted using the Biacore T200 Evaluation Software 3.2 and a 1:1 binding model.

anti-ALFA VHH [3] = experiment: dose-response curve fit (log(agonist) vs. response, variable slope), FIG. 2; assay format not described

anti-ALFA VHH, sequence (VHH, as listed by the source): as above

Binder	EC50 (anti-ALFA VHH [1]) [nM]	Kd [2] [nM]	koff [2] [s⁻¹]	kon [2] [M⁻¹ s⁻¹]	Bottom (anti-ALFA VHH [3])	LogEC50 (anti-ALFA VHH [3])	Span (anti-ALFA VHH [3])	Top (anti-ALFA VHH [3])
Ac-SRLEEELRKRLTE-NH2 (lactam 9-13; SMILES CC(=O)N[C@@H](CO)C(=O)N[C@@H](CCCNC(=N)N)C(=O)N[C@@H](CC(C)C)C(=O)N[C@@H](CCC(=O)O)C(=O)N[C@@H](CCC(=O)O)C(=O)N[C@@H](CCC(=O)O)C(=O)N[C@@H](CC(C)C)C(=O)N[C@@H](CCCNC(=N)N)C(=O)N[C@H]1CCCCNC(=O)CC[C@@H](C(N)=O)NC(=O)[C@H]([C@@H](C)O)NC(=O)[C@H](CC(C)C)NC(=O)[C@H](CCCNC(=N)N)NC1=O, Cyclic ALFA tag; also called SD15193) [Ac-Ser-Arg-Leu-Glu-Glu-Glu-Leu-Arg-(cyclo9)Lys-Arg-Leu-Thr-(cyclo13)Glu-NH2]	6.05	0.0556	0.00109	1.95e+07	0.145	0.782	1.29	1.44
Ac-SRLEDELRKRLTE-NH2 (lactam 5-9; SMILES CC(=O)N[C@@H](CO)C(=O)N[C@@H](CCCNC(=N)N)C(=O)N[C@@H](CC(C)C)C(=O)N[C@@H](CCC(=O)O)C(=O)N[C@H]1CC(=O)NCCCC[C@@H](C(=O)N[C@@H](CCCNC(=N)N)C(=O)N[C@@H](CC(C)C)C(=O)N[C@H](C(=O)N[C@@H](CCC(=O)O)C(N)=O)[C@@H](C)O)NC(=O)[C@H](CCCNC(=N)N)NC(=O)[C@H](CC(C)C)NC(=O)[C@H](CCC(=O)O)NC1=O, Cyclic ALFA tag; also called SD15196) [Ac-Ser-Arg-Leu-Glu-(cyclo5)Asp-Glu-Leu-Arg-(cyclo9)Lys-Arg-Leu-Thr-Glu-NH2]	377	0.436	0.0079	1.81e+07	0.0167	2.58	1.41	1.43
Ac-SRLEEELRRRLTE-NH2 (Linear ALFA tag; also called SD15197) [Ac-Ser-Arg-Leu-Glu-Glu-Glu-Leu-Arg-Arg-Arg-Leu-Thr-Glu-NH2]	2.6	0.0117	0.000593	5.05e+07	0.097	0.414	1.29	1.39
Ac-SRLEEELKRRLTE-NH2 (lactam 5-8; SMILES CC(=O)N[C@@H](CO)C(=O)N[C@@H](CCCNC(=N)N)C(=O)N[C@@H](CC(C)C)C(=O)N[C@@H](CCC(=O)O)C(=O)N[C@H]1CCC(=O)NCCCC[C@@H](C(=O)N[C@@H](CCCNC(=N)N)C(=O)N[C@@H](CCCNC(=N)N)C(=O)N[C@@H](CC(C)C)C(=O)N[C@H](C(=O)N[C@@H](CCC(=O)O)C(N)=O)[C@@H](C)O)NC(=O)[C@H](CC(C)C)NC(=O)[C@H](CCC(=O)O)NC1=O, Cyclic ALFA tag; also called SD15192) [Ac-Ser-Arg-Leu-Glu-(cyclo5)Glu-Glu-Leu-(cyclo8)Lys-Arg-Arg-Leu-Thr-Glu-NH2]	5.98	0.0551	0.000577	1.05e+07	0.152	0.776	1.2	1.35
SRLEEELRKRLTE (lactam 5-9; not fully specified (N-terminus, C-terminus), also called SD15194) [Ac-Ser-Arg-Leu-Glu-(cyclo5)Glu-Glu-Leu-Arg-(cyclo9)Lys-Arg-Leu-Thr-Glu-NH2]	5.97	0.0376	0.00067	1.78e+07	0.159	0.776	1.27	1.43
Ac-PSRLEKELRERLTE-NH2 (lactam 6-10; SMILES CC(=O)N1CCC[C@H]1C(=O)N[C@@H](CO)C(=O)N[C@@H](CCCNC(=N)N)C(=O)N[C@@H](CC(C)C)C(=O)N[C@@H](CCC(=O)O)C(=O)N[C@H]1CCCCNC(=O)CC[C@@H](C(=O)N[C@@H](CCCNC(=N)N)C(=O)N[C@@H](CC(C)C)C(=O)N[C@H](C(=O)N[C@@H](CCC(=O)O)C(N)=O)[C@@H](C)O)NC(=O)[C@H](CCCNC(=N)N)NC(=O)[C@H](CC(C)C)NC(=O)[C@H](CCC(=O)O)NC1=O, Cyclic ALFA tag; also called SD15805) [Ac-Pro-Ser-Arg-Leu-Glu-(cyclo6)Lys-Glu-Leu-Arg-(cyclo10)Glu-Arg-Leu-Thr-Glu-NH2]	–	0.103	0.000964	9.33e+06	–	–	–	–
Ac-PSRLEEELKRRLTE-NH2 (lactam 5-9; SMILES CC(=O)N1CCC[C@H]1C(=O)N[C@@H](CO)C(=O)N[C@@H](CCCNC(=N)N)C(=O)N[C@@H](CC(C)C)C(=O)N[C@H]1CCC(=O)NCCCC[C@@H](C(=O)N[C@@H](CCCNC(=N)N)C(=O)N[C@@H](CCCNC(=N)N)C(=O)N[C@@H](CC(C)C)C(=O)N[C@H](C(=O)N[C@@H](CCC(=O)O)C(N)=O)[C@@H](C)O)NC(=O)[C@H](CC(C)C)NC(=O)[C@H](CCC(=O)O)NC(=O)[C@H](CCC(=O)O)NC1=O, Cyclic ALFA tag; also called SD15806) [Ac-Pro-Ser-Arg-Leu-(cyclo5)Glu-Glu-Glu-Leu-(cyclo9)Lys-Arg-Arg-Leu-Thr-Glu-NH2]	–	1.43	4.94	3.44e+09	–	–	–	–
Ac-PSRLEEELR[dK]RLTE-NH2 (lactam 6-10; SMILES CC(=O)N1CCC[C@H]1C(=O)N[C@@H](CO)C(=O)N[C@@H](CCCNC(=N)N)C(=O)N[C@@H](CC(C)C)C(=O)N[C@@H](CCC(=O)O)C(=O)N[C@H]1CCC(=O)NCCCC[C@H](C(=O)N[C@@H](CCCNC(=N)N)C(=O)N[C@@H](CC(C)C)C(=O)N[C@H](C(=O)N[C@@H](CCC(=O)O)C(N)=O)[C@@H](C)O)NC(=O)[C@H](CCCNC(=N)N)NC(=O)[C@H](CC(C)C)NC(=O)[C@H](CCC(=O)O)NC1=O, Cyclic ALFA tag; also called SD15808) [Ac-Pro-Ser-Arg-Leu-Glu-(cyclo6)Glu-Glu-Leu-Arg-(cyclo10)dLys-Arg-Leu-Thr-Glu-NH2]	–	0.038	0.000513	1.35e+07	–	–	–	–
Ac-PSRLEEELRKRLTE-NH2 (lactam 6-10; SMILES CC(=O)N1CCC[C@H]1C(=O)N[C@@H](CO)C(=O)N[C@@H](CCCNC(=N)N)C(=O)N[C@@H](CC(C)C)C(=O)N[C@@H](CCC(=O)O)C(=O)N[C@H]1CCC(=O)NCCCC[C@@H](C(=O)N[C@@H](CCCNC(=N)N)C(=O)N[C@@H](CC(C)C)C(=O)N[C@H](C(=O)N[C@@H](CCC(=O)O)C(N)=O)[C@@H](C)O)NC(=O)[C@H](CCCNC(=N)N)NC(=O)[C@H](CC(C)C)NC(=O)[C@H](CCC(=O)O)NC1=O, Cyclic ALFA tag; also called SD15341) [Ac-Pro-Ser-Arg-Leu-Glu-(cyclo6)Glu-Glu-Leu-Arg-(cyclo10)Lys-Arg-Leu-Thr-Glu-NH2]	–	0.0194	0.000361	1.86e+07	–	–	–	–
